Results published in US20240141372A1, “TRANSGENIC BANANA PLANTS HAVING INCREASED RESISTANCE TO FUSARIUM OXYSPORUM TROPICAL RACE 4 AND METHODS OF PRODUCING SAME” (Elo Life Systems, priority 2022, published 2024).

Tests used:
Foc_TR4 = assay: In vitro spore germination and mycelial growth assay; format: cell-based, Fusarium oxysporum f.sp. cubense Tropical Race 4; settings: Foc_TR4, in vitro fungal growth inhibition assay; read-out: IC50
[1] = tested on: TR4 Fusarium oxysporum f sp. cubense (Foc); assay: ARSS greenhouse assay of acclimated tissue culture banana plants; format: in vivo; settings: transgenic banana lines per payload, FIG. 15

B1: Sm-AMP-D1: Sm-AMP-D1 anti-microbial peptide, tested as purified protein in vitro (protein)
chain: MAKTVLGIHVTFLTLLFAVILLNDVMYTPVEGKICERASGTWKGICIHSNDCNNQCVKWENAGSGSCHYQFPNYMCFCYFNC
- IC50 (Foc_TR4): 2.2 µM
- disease necrosis [1]: 27%
